Values belong to the binder of their own block, whether it stands above or below them.
Tests used:
murine PD-L1 = molecular target: T1, murine PD-L1 (mouse, UniProt Q9EP73 19-238, limits assumed); assay: ELISA, murine PD-L1 coated on the plate, goat anti-human IgG Fc-HRP; antibody concentration not shown
T1 construct: also called mouse PD-L1 (coated on ELISA plates)
Protocol: 3.7 Cross-species binding assay: the cross-reactivity of the Ab to cynomolgus and murine PD-L1 was measured by ELISA. Human, cyno and mouse PD-L1 were coated on ELISA plates, respectively. After blocking, fully human antibodies were added into the plate and incubated at room temperature for at least 2 hours. The binding of the antibodies to the coated antigens was detected by using goat anti-human IgG Fc-HRP. The color reaction was developed using TMB substrate and stopped by 2M HCl. The ELISA plates were analyzed at 450 nm using a Molecular Device M5e microplate reader.

[1] = molecular target: T2, PD-L2 expressed on transfected CHO cells (Homo sapiens (Human), UniProt Q9BQ51 20-273); assay: FACS on PD-L2 transfected CHO-K1 cells, single bar, antibody concentration not shown
T2 construct: also called PD-L2 of PD-1 ligand family
T2 sequence: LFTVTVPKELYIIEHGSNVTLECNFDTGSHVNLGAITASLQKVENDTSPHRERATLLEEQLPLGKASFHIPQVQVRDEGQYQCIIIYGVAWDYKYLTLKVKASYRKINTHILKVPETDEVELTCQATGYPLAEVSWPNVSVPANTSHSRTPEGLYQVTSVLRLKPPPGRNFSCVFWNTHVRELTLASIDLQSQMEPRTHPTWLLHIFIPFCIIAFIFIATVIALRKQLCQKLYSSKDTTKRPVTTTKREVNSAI
Protocol: 3.8 Cross-family binding assay by FACS: to examine the cross-family binding activity of the fully human antibodies, cells lines that express PD-L2 were stained with the fully human antibodies, followed by 2nd antibody staining with FITC conjugated goat anti-human IgG Fc. PD-L1 expressing cells were used as positive control. Corresponding parental cell lines were used as negative controls. The stained cells were analyzed by using a BD Biosciences FACSCanto II and FlowJo Version software.
CHO cells transfected with PD-L1 or PD-L2 were stained with fully human PD-L1 antibodies and analysis by FACS.

recombinant human PD-L1 = molecular target: T3, recombinant human PD-L1 (human, UniProt Q9NZQ7 19-238, limits assumed); assay: surface plasmon resonance per legend paragraph 39 and paragraph 188; column Best fit-KD, mol/L from the legend
T3 construct: Used for the SPR analyte (3.2) and for the plate-coated human PD-L1 of the cross-species ELISA (3.7); also called human PD-L1 (SPR analyte); Human PD-L1 coated on ELISA plates
Text: 3.2 Affinity test by surface plasmon resonance (SPR): Antibodies were characterized for affinity and binding kinetics to PD-L1 by SPR assay using ProteOn XPR36 (Bio-Rad). Protein A protein (Sigma) was immobilized to a GLM sensor chip (Bio-Rad) through amine coupling. Purified antibodies were flowed over the sensor chip and captured by the Protein A. The chip was rotated […] and washed with running buffer (1×PBS/0.01% Tween20, Bio-Rad) until the baseline is stable. Five concentrations of human PD-L1 and running buffer were flowed against the antibody flow cell at a flow rate 100 μL/min for an association phase of 240s, followed by 600s dissociation. The chip was regenerated with pH 1.7 H₃PO₄ after each run. The association and dissociation curve was fit to a 1:1 Langmiur binding model using ProteOn software.

[2] = molecular target: T4, full-length human PD-L1 expressed on CHO cells (human, UniProt Q9NZQ7 19-290); assay: FACS competition on CHO cells expressing human PD-L1; competitor mouse Fc-tagged human PD-1
T4 construct: whole, on cells; also called CHO-K1 cells expressing human PD-L1; PD-L1 transfected CHO cells
Protocol: (§1) 3.1 Competition assay by FACS: to examine whether the fully human antibodies can block the binding of PD-L1 to PD-1, the CHO-K1 cells expressing human PD-L1 were incubated with various concentrations of the fully human antibodies at 4° C. for 1 hour. The unbound antibodies were washed away, and then the mouse Fc-tagged human PD-1 was added to the cells. The binding of human PD-1 to PD-L1 expressing cell was detected by using FITC-conjugated goat anti-mouse IgG, followed by the analysis using a BD Biosciences FACSCanto II and FlowJo Version software.
(§2) Then the mouse Fc-tagged human PD-1 was added to the cells. The binding of human PD-1 to PD-L1 expressing cell was detected by using FITC-conjugated goat anti-mouse IgG, followed by the FACS analysis.

[3] = molecular target: T4, full-length human PD-L1 expressed on …; assay: FACS competition: blocking of mouse Fc-tagged human PD-1 binding to CHO cells expressing human PD-L1
Protocol: as §1, §2

[4] = molecular target: T4, full-length human PD-L1 expressed on …; assay: FACS on CHO cells transfected with full-length human PD-L1

T4 sequence (Q9NZQ7 19-290): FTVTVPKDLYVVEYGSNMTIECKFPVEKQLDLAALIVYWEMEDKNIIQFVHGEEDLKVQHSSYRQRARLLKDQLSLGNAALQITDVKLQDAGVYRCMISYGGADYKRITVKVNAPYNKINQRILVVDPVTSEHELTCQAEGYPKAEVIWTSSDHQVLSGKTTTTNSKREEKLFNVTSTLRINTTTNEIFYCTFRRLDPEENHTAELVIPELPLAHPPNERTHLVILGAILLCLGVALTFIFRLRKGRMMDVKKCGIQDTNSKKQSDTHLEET
T3 sequence (Q9NZQ7 19-238 limits assumed): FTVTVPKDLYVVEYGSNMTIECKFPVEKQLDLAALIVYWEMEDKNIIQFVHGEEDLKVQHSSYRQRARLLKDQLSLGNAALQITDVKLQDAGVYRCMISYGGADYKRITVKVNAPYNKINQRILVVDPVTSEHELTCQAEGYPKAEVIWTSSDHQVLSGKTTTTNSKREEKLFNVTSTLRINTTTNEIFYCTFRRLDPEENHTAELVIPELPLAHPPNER
T1 sequence (Q9EP73 19-238 limits assumed): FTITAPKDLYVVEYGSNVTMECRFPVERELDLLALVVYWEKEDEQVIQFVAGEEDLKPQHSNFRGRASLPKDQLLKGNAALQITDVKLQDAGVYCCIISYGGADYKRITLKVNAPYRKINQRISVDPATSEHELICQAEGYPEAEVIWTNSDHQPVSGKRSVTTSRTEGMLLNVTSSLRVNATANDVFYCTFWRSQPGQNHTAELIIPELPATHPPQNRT

binding result (murine PD-L1): no binding | binding result [1]: no binding
B1: 1.46.11 (antibody, V domains shown)
VH: EVQLLESGGGLVQPGGSLRLSCAASGFTFSSYAMSWVRQAPGKGLEWVSGFSGSGFITYYADSVKGRFTISRDNSKNTLYLQMNSLRAEDTAVYYCAMPPRGYNYGPFDYWGQGTLVTVSS
VL: SYVLTQPPSVSVAPGQTARITCGGNNIGSKSVHWYQQKPGQAPVLVVYDDSDRPSGIPERFSGSNSGNTATLTISRVEAGDEADYYCQVWDSSSDHVVFGGGTKLTVL
notes: Fully human monoclonal antibody with a human constant region of IgG4 isotype

binding result [1]: no binding | Kd (recombinant human PD-L1): 0.478 nM
B2: 1.4.1 (antibody, V domains shown)
VH: QLQLQESGPGLVKPSESLSLTCTVSGGSISIRTYYWGWIRQPPGTGLEWMGYIYYSGSTRYNPSLKSRVTISVDTSKNQFSLKLSSVTAADTAVYYCARLSYFFDYWGQGTLVTVSS
VL: SYELTQPPSVSVSPGQTASITCSGDKLGDKYACWYQQKPGQSPVMVIYQDTKRPSGIPERFSGSNSGNTATLTISGTLAMDEADYYCQAWDSGTVIFGGGTKLTVL
notes: Fully human monoclonal antibody with a human constant region of IgG4 isotype; also called fully human PD-L1 antibody 1.4.1; 1.4.1-VH(30511)

binding result (murine PD-L1): no binding | binding result [1]: no binding | IC50 [2]: ~10 nM | Kd (recombinant human PD-L1): 0.226 nM | IC50 (read off the curve) [3]: ~2 nM | EC50 (read off the curve) [4]: ~1 nM
B3: 1.20.15 (antibody, V domains shown)
VH: QLQLQESGPGLVKPSETLSLTCTVSGGSISSISNYWGWIRQPPGKGLEWIGSIYYSGSTNYNPPLKSRVTISVDTTKNQFSLKLSSVTAADTAVYYCARLTYYFDYWGQGMLVTVSS
VL: SYDLTQPPSVSVSPGQTASITCSGDKLGDKYACWYQQKPGQSPLLVIQQDSKRPSGIPARFSGSNSGNTATLTISGTQAMDEADYFCQTWDSSTVVFGGGTKLTVL
notes: Fully human monoclonal antibody with a human constant region of IgG4 isotype; also called fully human PD-L1 antibody 1.20.15; 1.20.15-VH(30712)
